Data taken from the supplement of paper PMC10567573.

B1: INTS4 (parent)
chain: IRLVDDAFGKICHMVSDGSWVVRV
B2: ZNF8 (parent)
chain: RTHTGEKPYTCSVCGKSFSRTTCL

Variants of: B1
Assay: protein stability index of a GFP-peptide fusion (GPS, HEK-293T) (PSI 1-6); higher = more stable
Settings: c terminus: a fixed tail appended
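Further: lentivirally expressed fusions sorted by FACS into six bins by GFP to DsRed ratio, PSI derived from sequencing read proportions per bin multiplied by bin number.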

Protein stability index: each site, then its substitutions
L3: V 3.33; H 2.17; E 3.14; I 3.47; F 2.76; R 2.08; C 1.72; A 3.09; W 1.97
D5: Y 3.78; V 2.32; R 1.8; I 2.67; L 3.22; T 3.23; P 2.53; F 4.33; K 3.01; G 3.16; A 2.73; C 3.07; S 2.3
F8: Y 2.45; M 2.69; W 3.06; Q 2.5; S 3.94; C 2.59; G 1.6; P 2.54; K 2.31; R 2.46; D 4.44; E 3.82; I 2.78; H 2.19
R2: A 3.67; M 2.78; S 2.96; F 4.79; V 4.66
A7: D 2.86; K 2.09; L 3.62; M 2.62; F 2.22; W 3.37; S 4.46; G 2.95
V4: R 1.47; N 1.36; I 3.33; S 2.82; L 4.43; T 1.88; C 2.16; F 2.26; Y 2.46; A 3.46; P 2.57; K 3.23; M 4.21
G9: E 1.14; F 3.37; M 2.96; K 1.85; P 3.75; R 2.17
I1: Y 2.87; F 4.01; P 2.78; T 3.21; C 2.39; E 2.77; Q 3.89; K 3.49; A 2.67; H 3.54; N 3.6; M 3.29
D6: G 2.84; R 2.21; T 3.69; W 2.88; N 4.84; M 3.24; E 3.96; V 2.35; Q 4.08; L 1.98

Variants of: B2
Assay: as above
Settings: c terminus: a fixed tail appended

Protein stability index, by site and new letter:
G15: C 1.83; Y 1.32; N 1.92; W 1.43; R 2.17; T 1.65; H 1.81; I 1.46; P 2.57; A 1.88; S 1.87; L 1.99; F 2.28; V 1.73; M 1.6; E 2.15; D 2.36; K 2.25; Q 1.75
F18: Q 2.39; H 4.78; P 2.01; Y 2.23; C 3.45; I 1.54; S 2.73; G 2.84; V 2.5; E 3.37; D 2.92; M 1.89; T 2.48; K 2.5; L 3.4; R 2.56; W 2.43; N 2.53
C23: G 2.43; P 2.63; H 2.26; K 2.28; M 2.19; E 3; Q 2.24; V 1.59; T 2.1; S 2.03; Y 2.57; R 1.84; A 2.21; W 1.78; D 2.46; L 1.93; F 2.11
T21: N 1.99; H 3.29; I 2.15; G 3.27; D 3.37; Y 2.32; F 1.71; E 2.67; L 2.83; C 5.19; M 2.39; K 2.4; A 2.7; R 2.39; P 2.58; S 2.16; W 1.72; Q 2.49; V 2.36
C14: P 2.82; R 2.19; I 2.34; W 1.42; K 3.06; E 2.46; M 2.88; T 2.46; Q 2.17; G 1.99; H 2.89; Y 2.06; A 2.17; N 2.87; F 2.1; L 2.76; D 2.77; S 2.41; V 3.13
R20: T 2.77; C 5.54; V 2.02; H 3.75; G 3.17; W 2.47; P 2.75; L 2.01; M 2.18; N 2.76; A 2.55; I 1.75; Y 2.91; D 3.46; K 2.76; E 3.14; S 2.17; F 2.15; Q 2.87
V13: A 2.26; D 2.46; M 2.14; W 1.65; C 3.54; F 2.48; K 2.61; P 1.97; R 1.99; T 1.89; E 2.47; N 2.26; S 2.56; Q 1.28; L 2.23; Y 2.43; I 2.09; H 2.61; G 2
T22: G 2.1; N 2.94; F 2.3; L 1.9; M 1.63; K 2.97; V 2.16; A 2.56; H 2.24; R 1.8; S 1.82; D 2.27; Y 1.98; C 4.01; E 4.28; W 1.86; Q 2.5; P 2.43
L24: I 2.8; Y 2.48; R 2.73; F 2.06; E 3.28; H 3.46; W 2.8; A 2.56; Q 2.96; P 3.17; C 4.72; D 3.21; M 2.87; T 3.08; V 3.06; K 2.76; N 3.03; S 2.06
S12: Q 2.33; L 2.22; F 2.05; M 2.34; K 2.13; E 2.72; N 2.24; I 2.11; A 2.96; D 2.59; H 2.41; V 2.21; T 2.52; C 2.13; Y 2.27; W 2.17; R 2.21; P 2.7; G 2.02
S17: E 2.4; D 2.55; C 3.72; M 2.03; G 1.73; Y 2.14; Q 2.58; H 2.69; A 2.48; K 2.87; R 2.77; P 3.07; T 2.63; L 2.34; W 1.82; N 2.36; F 1.48; I 2.17; V 2.67
S19: E 2.67; Y 2.33; Q 2.65; C 3.7; K 2.45; M 2.5; V 3.91; L 2.51; T 2.41; W 2.42; H 2.59; I 2.07; A 1.36; R 3.8; D 2.79; G 2.35; P 2.26; F 2.64; N 2.67
K16: D 2.08; R 2.45; S 1.75; E 2.61; T 1.94; Y 1.87; N 2.58; I 1.74; A 1.85; V 1.96; W 1.84; L 2.09; G 2.41; F 1.77; C 2.16; M 2.2; Q 2.6; P 1.81; H 1.99
C11: W 1.82; Y 1.86
